Data reported in the supplement of paper PMC10567573.

B1: ESRRA (parent)
chain: LGVAQRSLPLQDELAFAEDLVLDE

Variants of: B1
Test: protein stability index of a GFP-peptide fusion (GPS, HEK-293T) (PSI 1-6); higher = more stable
Conditions: c terminus: a fixed tail appended
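Note: lentivirally expressed fusions sorted by FACS into six bins by GFP to DsRed ratio, PSI derived from sequencing read proportions per bin multiplied by bin number.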

Row | Variant | protein stability index
1 | LGVAQYSLPLQDELAFAEDLVLDE | 2.16
2 | LGVAQRSQPLQDELAFAEDLVLDE | 3.72
3 | LGVAQRSLPLQDELAFAEDLVLEE | 2.65
4 | LGVAQRSLPLHDELAFAEDLVLDE | 3.21
5 | LGVANRSLPLQDELAFAEDLVLDE | 2.63
6 | LGVAQRSLPLQDELAFAEDLVLDR | 3.38
7 | LGVNQRSLPLQDELAFAEDLVLDE | 2.94
8 | LGVAQRSLPLQDELATAEDLVLDE | 5.04
9 | LHVAQRSLPLQDELAFAEDLVLDE | 2.78
10 | LGVAQVSLPLQDELAFAEDLVLDE | 3.09
11 | LGVAQRSLPLQDELAFAEDNVLDE | 4.85
12 | LGVAQRSLPNQDELAFAEDLVLDE | 5.12
13 | LGVAQRSLPLQDELVFAEDLVLDE | 4.41
14 | LGVAQRCLPLQDELAFAEDLVLDE | 2.4
15 | LGVAQRSLPLQHELAFAEDLVLDE | 2.17
16 | LGVAQRSLPLQDELAFAEDLVLDW | 2.21
17 | LGVAQRSLFLQDELAFAEDLVLDE | 3.54
18 | LGVAQRSLPLQDESAFAEDLVLDE | 5.66
19 | LGVAQRSLPLQDELAFQEDLVLDE | 5.4
20 | LGVAQRSLPLQDELAWAEDLVLDE | 2.45
21 | LGVAQRSLPLQDVLAFAEDLVLDE | 2.64
22 | LGVAQRSLGLQDELAFAEDLVLDE | 2.64
23 | LGVAQRSLPLQDELAFAEDLVRDE | 2.89
24 | LGVAQRSLPLQDEQAFAEDLVLDE | 5.27

Row | Variant | protein stability index
25 | LGVAQISLPLQDELAFAEDLVLDE | 2.37
26 | LGVAQRSLPLQDELAFAEDIVLDE | 3.18
27 | LGVAQRSLPLQDELAFAEILVLDE | 1.94
28 | LGVAQRSLPLQDEWAFAEDLVLDE | 4.37
29 | LGVYQRSLPLQDELAFAEDLVLDE | 2.1
30 | LGVAQRSLTLQDELAFAEDLVLDE | 4.04
31 | LGVAQRSLPLQDELAFPEDLVLDE | 5.19
32 | LGVAVRSLPLQDELAFAEDLVLDE | 2.19
33 | LGVAQRSVPLQDELAFAEDLVLDE | 3.53
34 | LGVAQRSLPLQDELQFAEDLVLDE | 3.65
35 | LGVAQRSLPGQDELAFAEDLVLDE | 5.43
36 | LGMAQRSLPLQDELAFAEDLVLDE | 2.12
37 | LGVAQRSLVLQDELAFAEDLVLDE | 4.05
38 | LGVAQRSLPLQDELAFASDLVLDE | 4.4
39 | LGVAQASLPLQDELAFAEDLVLDE | 3.14
40 | LGVAQRSLPDQDELAFAEDLVLDE | 5.42
41 | LGVAQRSLPLQQELAFAEDLVLDE | 1.7
42 | LGVAQRSLPLQDWLAFAEDLVLDE | 3.24
43 | LGVAQRSLPLQDRLAFAEDLVLDE | 4.62
44 | LFVAQRSLPLQDELAFAEDLVLDE | 1.87
45 | LGVRQRSLPLQDELAFAEDLVLDE | 1.86
46 | LGVAQRSLPLCDELAFAEDLVLDE | 3.94
47 | LGVAQRSLPLQDSLAFAEDLVLDE | 4.45
48 | LGVGQRSLPLQDELAFAEDLVLDE | 2.41

Row | Variant | protein stability index
49 | LGVAQRSLPLQDELAFREDLVLDE | 4.83
50 | LYVAQRSLPLQDELAFAEDLVLDE | 1.89
51 | LGVAQCSLPLQDELAFAEDLVLDE | 1.84
52 | LGVAQRSLPLQYELAFAEDLVLDE | 1.8
53 | LGVAQRSLPLQDELAFAEDLVLKE | 2.41
54 | LGVAQRSLPLQEELAFAEDLVLDE | 2.3
55 | LGVAQRSLPLQDELLFAEDLVLDE | 3.81
56 | LGVAQRSLPLQDELAFAEDLLLDE | 3.96
57 | LGVAQRSLPLQDELARAEDLVLDE | 3.03
58 | LGVAQRSLPLQDETAFAEDLVLDE | 5.5
59 | LGVAQRSLELQDELAFAEDLVLDE | 3.45
60 | LGVAQRFLPLQDELAFAEDLVLDE | 2.32
61 | LGVAQRSLPLQDELAFAVDLVLDE | 3.65
62 | LGDAQRSLPLQDELAFAEDLVLDE | 3.69
63 | LGVAQRSLPLQDELAFAEDMVLDE | 2.16
64 | LGVAQRSLPLQDELAFAEDLVNDE | 4.69
65 | LGVAIRSLPLQDELAFAEDLVLDE | 2.17
66 | LGVAQRSLPLQDELAFCEDLVLDE | 4.9
67 | LGVAQRSLPLQDELAFAIDLVLDE | 2.56
68 | LGVAQRSLPLQDELANAEDLVLDE | 3.63
69 | LGVAQRSLPLQDELAFAEDLTLDE | 5.39
70 | LGVAQRSLPLQDELAFIEDLVLDE | 3.96
71 | LGVEQRSLPLQDELAFAEDLVLDE | 3.45
72 | LGVAQRSLPSQDELAFAEDLVLDE | 5.19

Row | Variant | protein stability index
73 | LGVAQRSLPLQDELAFAEDLVLDQ | 3.67
74 | LGVAQRSLPLQDELAFLEDLVLDE | 4.3
75 | LGVAQRSLPLQDELAFAEDLVLDS | 3.13
76 | LGVAQRSLPLQDFLAFAEDLVLDE | 3.12
77 | KGVAQRSLPLQDELAFAEDLVLDE | 2.34
78 | LGVAQRSLPLQFELAFAEDLVLDE | 1.46
79 | LGVAQRSLPRQDELAFAEDLVLDE | 5.44
80 | LGVAQRSLPQQDELAFAEDLVLDE | 5.45
81 | LGVAQRSLPLQDELAVAEDLVLDE | 4.09
82 | LGVAQRSLPLQDELAFAEDLILDE | 1.56
83 | LGVAQRSLPLQDELAFAEDLVLDV | 2.21
84 | LGVAQRSLPLQDELAFKEDLVLDE | 5.25
85 | LGVAQRSLPLQDELAFAEDLCLDE | 4.31
86 | LSVAQRSLPLQDELAFAEDLVLDE | 2.63
87 | LGVAQRLLPLQDELAFAEDLVLDE | 2.58
88 | LGVAQRSLPLQDELAFAEDRVLDE | 4.19
89 | LGVAFRSLPLQDELAFAEDLVLDE | 1.87
90 | LGVAQRSLPLQDILAFAEDLVLDE | 2.42
91 | LGVQQRSLPLQDELAFAEDLVLDE | 3.33
92 | LGVARRSLPLQDELAFAEDLVLDE | 1.74
93 | LGVAQRSLPLQDELAFAEDLVLDP | 3.92
94 | LGVAQRSLPLQDEIAFAEDLVLDE | 5.15
